The assay addresses T1, Purified FLAG-tagged HPV18 E1 (human papillomavirus type 18, UniProt P06789 1-657).
T1 construct: E1 helicase of human papillomavirus type 18; also called F18E1; source: Sf9 cells, recombinant baculovirus (pFastBac1), purified; not shown: FLAG, N-terminal, kept
T1 sequence: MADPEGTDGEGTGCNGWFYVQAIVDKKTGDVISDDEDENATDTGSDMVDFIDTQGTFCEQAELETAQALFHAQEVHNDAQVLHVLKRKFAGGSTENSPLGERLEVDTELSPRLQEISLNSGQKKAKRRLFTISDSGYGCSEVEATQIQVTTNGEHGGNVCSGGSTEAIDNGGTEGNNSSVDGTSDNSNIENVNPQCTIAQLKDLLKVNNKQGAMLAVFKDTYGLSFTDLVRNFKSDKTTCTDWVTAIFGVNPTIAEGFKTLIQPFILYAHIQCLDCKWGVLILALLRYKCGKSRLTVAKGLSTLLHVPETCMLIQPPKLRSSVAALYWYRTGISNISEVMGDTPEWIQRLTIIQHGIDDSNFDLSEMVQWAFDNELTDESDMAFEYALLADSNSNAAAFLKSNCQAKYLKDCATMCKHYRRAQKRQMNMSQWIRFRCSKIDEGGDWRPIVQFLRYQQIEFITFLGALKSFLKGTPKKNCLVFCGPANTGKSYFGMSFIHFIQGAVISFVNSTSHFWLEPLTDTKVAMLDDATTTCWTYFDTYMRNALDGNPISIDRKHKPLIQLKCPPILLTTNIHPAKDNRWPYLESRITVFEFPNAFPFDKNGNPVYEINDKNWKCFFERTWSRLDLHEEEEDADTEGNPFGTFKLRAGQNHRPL
In words: co-IP; 1 ug purified H16E1 and 4 ug purified F18E1 in 200 ul binding buffer (20 mM Tris-HCl pH 8.0, 150 mM NaCl, 2 mM MgCl2, 0.01% NP-40); IP with anti-FLAG antibody and protein G magnetic beads, 1 h at 4°C; blot with anti-6xHis antibody. The conditions noted are these: both partners purified.

B1: Purified 6xHis-tagged HPV16 E1 (enzyme)
chain: MADPAGTNGEEGTGCNGWFYVEAVVEKKTGDAISDDENENDSDTGEDLVDFIVNDNDYLTQAETETAHALFTAQEAKQHRDAVQVLKRKYLVSPLSDISGCVDNNISPRLKAICIEKQSRAAKRRLFESEDSGYGNTEVETQQMLQVEGRHETETPCSQYSGGSGGGCSQYSSGSGGEGVSERHTICQTPLTNILNVLKTSNAKAAMLAKFKELYGVSFSELVRPFKSNKSTCCDWCIAAFGLTPSIADSIKTLLQQYCLYLHIQSLACSWGMVVLLLVRYKCGKNRETIEKLLSKLLCVSPMCMMIEPPKLRSTAAALYWYKTGISNISEVYGDTPEWIQRQTVLQHSFNDCTFELSQMVQWAYDNDIVDDSEIAYKYAQLADTNSNASAFLKSNSQAKIVKDCATMCRHYKRAEKKQMSMSQWIKYRCDRVDDGGDWKQIVMFLRYQGVEFMSFLTALKRFLQGIPKKNCILLYGAANTGKSLFGMSLMKFLQGSVICFVNSKSHFWLQPLADAKIGMLDDATVPCWNYIDDNLRNALDGNLVSMDVKHRPLVQLKCPPLLITSNINAGTDSRWPYLHNRLVVFTFPNEFPFDENGNPVYELNDKNWKSFFSRTWSRLSLHEDEDKENDGDSLPTFKCVSGQNTNTL
notes: E1 helicase of human papillomavirus type 16; H16E1 gene cloned into pET-30; The pET-30 vector may add further vector-derived residues; also called H16E1; source: Escherichia coli BL21(DE3) pLysS (pET-30), purified
On to B1, for which the binding result was “binds”.
